Results as given in PMC2908218.

Molecular target: conventional myosin (Caenorhabditis elegans) (UniProt P02566)
Test: ELISA

Sequence of UniProt P02566 (P02566 whole entry): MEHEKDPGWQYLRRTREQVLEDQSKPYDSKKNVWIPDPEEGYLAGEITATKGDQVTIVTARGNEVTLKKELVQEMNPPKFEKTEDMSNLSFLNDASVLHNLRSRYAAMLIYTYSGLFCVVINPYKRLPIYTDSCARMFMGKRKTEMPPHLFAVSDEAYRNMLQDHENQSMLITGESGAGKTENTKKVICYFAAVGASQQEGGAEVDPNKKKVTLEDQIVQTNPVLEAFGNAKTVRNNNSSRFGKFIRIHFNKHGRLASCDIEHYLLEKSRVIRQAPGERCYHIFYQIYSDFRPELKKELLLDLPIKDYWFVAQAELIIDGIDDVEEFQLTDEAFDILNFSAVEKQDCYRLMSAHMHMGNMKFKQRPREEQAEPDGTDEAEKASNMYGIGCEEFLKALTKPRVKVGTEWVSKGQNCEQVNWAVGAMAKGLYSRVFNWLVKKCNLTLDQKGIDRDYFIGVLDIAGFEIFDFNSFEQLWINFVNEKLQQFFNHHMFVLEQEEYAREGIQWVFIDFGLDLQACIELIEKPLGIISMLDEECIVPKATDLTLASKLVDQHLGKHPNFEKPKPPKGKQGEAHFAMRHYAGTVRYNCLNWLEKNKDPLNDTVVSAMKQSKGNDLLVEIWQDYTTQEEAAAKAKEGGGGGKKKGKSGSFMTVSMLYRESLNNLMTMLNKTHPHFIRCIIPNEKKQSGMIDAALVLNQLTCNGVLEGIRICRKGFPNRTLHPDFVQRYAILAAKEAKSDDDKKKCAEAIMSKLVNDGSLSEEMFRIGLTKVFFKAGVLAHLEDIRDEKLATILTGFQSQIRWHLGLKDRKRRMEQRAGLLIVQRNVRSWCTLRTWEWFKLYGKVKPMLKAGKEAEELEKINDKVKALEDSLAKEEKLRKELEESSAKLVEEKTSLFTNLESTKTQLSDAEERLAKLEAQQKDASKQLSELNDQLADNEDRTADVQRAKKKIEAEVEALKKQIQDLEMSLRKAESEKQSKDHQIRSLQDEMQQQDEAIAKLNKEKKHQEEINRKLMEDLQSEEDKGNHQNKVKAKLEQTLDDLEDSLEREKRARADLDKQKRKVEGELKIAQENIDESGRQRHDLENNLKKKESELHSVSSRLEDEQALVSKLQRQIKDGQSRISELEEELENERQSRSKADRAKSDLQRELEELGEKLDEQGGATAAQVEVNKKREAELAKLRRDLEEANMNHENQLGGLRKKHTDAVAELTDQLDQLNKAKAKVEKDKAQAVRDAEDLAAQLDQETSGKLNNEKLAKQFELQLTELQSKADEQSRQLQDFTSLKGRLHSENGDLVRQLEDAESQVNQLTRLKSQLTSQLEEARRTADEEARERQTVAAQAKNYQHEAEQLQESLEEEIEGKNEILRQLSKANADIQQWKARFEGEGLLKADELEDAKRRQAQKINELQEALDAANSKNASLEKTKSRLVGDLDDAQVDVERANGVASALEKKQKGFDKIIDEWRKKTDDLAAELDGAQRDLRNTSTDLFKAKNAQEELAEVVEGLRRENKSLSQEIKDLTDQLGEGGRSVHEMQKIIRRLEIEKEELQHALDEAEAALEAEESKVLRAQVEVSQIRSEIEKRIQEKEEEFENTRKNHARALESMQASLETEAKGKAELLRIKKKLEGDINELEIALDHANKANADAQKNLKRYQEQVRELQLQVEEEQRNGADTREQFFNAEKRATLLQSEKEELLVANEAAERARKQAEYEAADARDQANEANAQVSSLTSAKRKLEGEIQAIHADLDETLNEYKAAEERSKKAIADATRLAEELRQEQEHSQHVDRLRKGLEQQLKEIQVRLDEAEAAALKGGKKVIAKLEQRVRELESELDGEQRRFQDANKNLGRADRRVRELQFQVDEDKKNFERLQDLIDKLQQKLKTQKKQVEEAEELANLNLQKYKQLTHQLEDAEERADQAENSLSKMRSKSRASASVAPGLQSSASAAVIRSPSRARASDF

Substance: TTN-1 fragment 11/12 Ig38-Ig39-Ig40 (from UniProt G4SLH0)
- Kd: 1.5 nM
